Test results published in paper PMC12044017, “CDK4/6-mediated phosphorylation of DUB3 promotes YAP1 stability and hepatocellular carcinoma progression” (Cell Death Discovery, 2025).

Biological target: T1, His-DUB3 (UniProt Q6R6M4 1-530)
T1 construct: deubiquitinase DUB3 (USP17L2), cloned into pET30a; the methods name only GST-DUB3 WT and His-YAP1
T1 sequence (looked up): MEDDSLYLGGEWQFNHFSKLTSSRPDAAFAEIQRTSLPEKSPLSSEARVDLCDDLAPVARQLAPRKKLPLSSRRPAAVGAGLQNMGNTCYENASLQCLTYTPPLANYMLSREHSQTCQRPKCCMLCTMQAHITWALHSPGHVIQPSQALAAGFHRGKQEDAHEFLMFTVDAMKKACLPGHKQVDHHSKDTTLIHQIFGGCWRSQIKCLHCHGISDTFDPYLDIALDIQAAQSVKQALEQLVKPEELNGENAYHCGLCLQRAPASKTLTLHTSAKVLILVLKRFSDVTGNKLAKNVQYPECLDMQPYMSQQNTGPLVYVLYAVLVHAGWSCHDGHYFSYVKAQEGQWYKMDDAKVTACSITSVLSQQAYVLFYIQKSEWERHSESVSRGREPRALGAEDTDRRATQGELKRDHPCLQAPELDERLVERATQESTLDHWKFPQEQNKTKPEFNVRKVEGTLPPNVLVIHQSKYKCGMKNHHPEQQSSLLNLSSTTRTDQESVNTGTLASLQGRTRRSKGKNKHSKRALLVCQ
Assay: pull-down; GST-fusion protein on Pierce Glutathione agarose mixed with purified His-tagged protein at 4 °C for 2 hours; beads washed four times; western blot
Conditions: both partners purified

binding result: binds
B1: GST-CDK4 (enzyme, UniProt P11802 1-303, looked up)
chain: MATSRYEPVAEIGVGAYGTVYKARDPHSGHFVALKSVRVPNGGGGGGGLPISTVREVALLRRLEAFEHPNVVRLMDVCATSRTDREIKVTLVFEHVDQDLRTYLDKAPPPGLPAETIKDLMRQFLRGLDFLHANCIVHRDLKPENILVTSGGTVKLADFGLARIYSYQMALTPVVVTLWYRAPEVLLQSTYATPVDMWSVGCIFAEMFRRKPLFCGNSEADQLGKIFDLIGLPPEDDWPRDVSLPRGAFPPRGPRPVQSVVPEMEESGAQLLLEMLTFNPHKRISAFRALQHSYLHKDEGNPE
notes: cyclin-dependent kinase 4 (CDK4); no cyclin partner is mentioned; also called cyclin-dependent kinase 4; source: bacterial-purified recombinant; GST-fusion proteins purified on Pierce Glutathione agarose
